According to article PMC6366636:

Tests used:
[1] = biological target: Fluorescently labeled EC12 probe (EC12 A36C/Y44W conjugated with Alexa-488) (Manduca sexta); assay: native gel or EMSA
[2] = biological target: Cry1Ab toxin of Bacillus thuringiensis subsp. berliner 1715 (trypsin-activated) (Bacillus thuringiensis subsp. berliner 1715) (UniProt P0A370); assay: native gel or EMSA

Substance	Kd [1]	decrease of the capacity to compete with the EC12 probe, against EC12WT [2]
Cry1Ab toxin of Bacillus thuringiensis subsp. berliner 1715 (trypsin-activated) (from UniProt P0A370 1-1155) (natural protein)	19.5 nM	–
EC12_(SQ/AA) (alanine substitution of the serine-glutamine dipeptide in EC12) (domain or fragment)	–	50%
